Measured values reported in patent US20130196415.

System: fibrin

trypsin (EC3.4.21.4, manufactured by Wako Pure Chemical Industries, Ltd.)
digestion circle on fibrin-containing solid medium (fibrinolytic activity assay, protease at FLV 111, overnight at 37° C.): a digestion circle was observed for trypsin
